This note sets out measurements from US20240228595A1 (YALE UNIVERSITY, published 2024).

Experiment [1] has as its target T1, SARS-COV-2 RBD-his tag protein (Sino Biological) (SARS-CoV-2, UniProt P0DTC2 319-541).
Experiment [2] addresses T1, SARS-COV-2 RBD-his tag protein (Sino …). This is another data set of the same source.
The target is the same in experiment [3]. The source holds these as a separate data set.

Read-outs that look alike come from different tables or passages of the source.

B1: Clone 2 (antibody, V domains shown)
VH: EVQLQQSGPELVKPGASVKISCKASGYSFTGYSMNWMKQSPEKSLEWIGEINPSTGGTTDNQKFKAKATLTVDKSSSTAYMQLKSLTSEDSAVYYCARSRGDYWGQGTSVTVSS
VL: DIVLTQSPASLAVSLGQRATISCRASESVEYYGTSLMQWYQQKPGQPPKVLIYAASNVESGVPARFSGSGSGTDFSLNIHPVEEDDIAMYFCQQSRKVPWTFGGGTKLEIKR
In experiment [1], B1 yielded a Kd of 0.0441 nM, a koff of 7.09e-05 s⁻¹ and a kon of 1.61e+06 M⁻¹ s⁻¹. In experiment [2], this molecule gave a Kd of 0.00158 nM, a koff of 1.49e-07 s⁻¹ and a kon of 94500 M⁻¹ s⁻¹. For the same molecule, in experiment [3], the Kd was determined as 1.67 nM, the koff came out at 0.000853 s⁻¹ and the kon was found to be 511000 M⁻¹ s⁻¹.

B2: Clone 6 (antibody, V domains shown)
VH: QVQLQQSAAELARPGASVKMSCKASGYTFTSYTMHWVKQRPGQGLEWIGYINPTSGYTEYNQNFKDKTTLTADKSSSTAYMQLNSLTSEDSAVYYCAREGHRVGPAYWGQGTLVTVSA
VL: not shown
In experiment [1], B2 showed a Kd of 0.148 nM, a koff of 0.00056 s⁻¹ and a kon of 3.77e+06 M⁻¹ s⁻¹. In experiment [3], this molecule showed a Kd of 2.27 nM, a koff of 0.00611 s⁻¹ and a kon of 2.69e+06 M⁻¹ s⁻¹.

B3: Clone 13 (antibody, human IgG1, kappa, V domains shown)
VH: EVQLVESGGGLVQPGGSLRLSCAASGFTFSGYSMNWVRQAPGKGLEWVAEINPSTGGTTDNQKFKARFTISRDNSKNTLYLQMNSLRAEDTAVYYCARSRGDYWGQGTLVTVSS
VL: DIQMTQSPSSLSASVGDRVTITCRASESVEYYGTSLMQWYQQKPGKAPKLLIYAASNVESGVPSRFSGSGSGTDFTLTISSLQPEDFATYYCQQSRKVPWTFGQGTKVEIKR
For B3, in experiment [3], binding was put at a Kd of 4.17 nM, the koff stood at 0.000497 s⁻¹ and the kon stood at 119000 M⁻¹ s⁻¹.

B4: Clone 16 (Clone6-KiH-Clone2) bispecific antibody (bispecific antibody)
heavy 1: not shown
light 1: DIVLTQSPASLAVSLGQRATISCRASESVDNYGISFMNWFQQTPGQPPKLLIYGSSNQGSGVPARFSGSGSGTDFSLNIHPMEEDDTAMYFCQQSKEVPYTFGGGTKLEIKRTVAAPSVFIFPPSDEQLKSGTASVVCLLNNFYPREAKVQWKVDNALQSGNSQESVTEQDSKDSTYSLSSTLTLSKADYEKHKVYACEVTHQGLSSPVTKSFNRGEC
heavy 2: not shown
light 2: DIVLTQSPASLAVSLGQRATISCRASESVEYYGTSLMQWYQQKPGQPPKVLIYAASNVESGVPARFSGSGSGTDFSLNIHPVEEDDIAMYFCQQSRKVPWTFGGGTKLEIKRSSASTKGPSVFPLAPSSKSTSGGTAALGCLVKDYFPEPVTVSWNSGALTSGVHTFPAVLQSSGLYSLSSVVTVPSSSLGTQTYICNVNHKPSNTKVDKKVEPKSC
Turning to B4, in experiment [3], the Kd stood at 2.95 nM, the koff worked out at 0.00461 s⁻¹ and the kon was determined as 1.56e+06 M⁻¹ s⁻¹.

A word on the Kd: it is the equilibrium constant for the complex coming apart. A lower Kd goes with a tighter complex. A word on the koff: it is a measure of how fast the partners let go of each other. Broadly, the kon is the rate constant with which the complex forms. The low end stands for slower complex formation, the high end for faster complex formation.
